Values belong to the binder of their own block, whether it stands above or below them.
Columns and labels:
[1] = molecular target: T1, mature heparanase (active heterodimer of 8 kDa and 50 kDa subunits) (human)
T1 sequence (Q9Y251 whole entry, looked up): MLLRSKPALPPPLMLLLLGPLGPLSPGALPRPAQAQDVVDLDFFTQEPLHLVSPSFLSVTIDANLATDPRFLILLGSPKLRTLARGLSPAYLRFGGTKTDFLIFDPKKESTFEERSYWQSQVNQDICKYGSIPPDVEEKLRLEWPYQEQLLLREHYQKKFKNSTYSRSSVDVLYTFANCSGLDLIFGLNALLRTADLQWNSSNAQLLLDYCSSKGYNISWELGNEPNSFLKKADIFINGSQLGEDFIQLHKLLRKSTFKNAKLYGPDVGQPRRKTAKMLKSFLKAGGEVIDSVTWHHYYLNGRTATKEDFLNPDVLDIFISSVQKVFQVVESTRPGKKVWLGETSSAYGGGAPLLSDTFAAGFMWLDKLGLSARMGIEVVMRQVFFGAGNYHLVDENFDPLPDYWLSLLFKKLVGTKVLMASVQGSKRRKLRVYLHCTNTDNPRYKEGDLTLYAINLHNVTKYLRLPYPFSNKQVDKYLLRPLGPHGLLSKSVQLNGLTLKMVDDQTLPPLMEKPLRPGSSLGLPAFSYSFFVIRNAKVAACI

latent 65 kDa heparanase [2] = molecular target: T2, latent 65 kDa heparanase (Homo sapiens, UniProt Q9Y251); assay: SPR; Biacore analysis; orientation and conditions not told; conditions: both partners purified
T2 construct: heparanase, human, unprocessed 65 kDa latent proenzyme on one chain ('full-length latent heparanase'); also called Hpa65; pro-heparanase; source: recombinant

latent 65 kDa heparanase [3] = molecular target: T2, latent 65 kDa heparanase; assay: ELISA; 96-well microtiter plate coated with latent 65 kDa heparanase (Hpa65); purified mAb A54 or control mouse IgG added at the indicated concentrations; conditions: both partners purified
[4] = molecular target: T3, heparanase protein (form not stated) (human) (UniProt Q9Y251); assay: not stated; binding affinity of the humanized vs. the mouse A54 antibody for the heparanase protein; service by GenScript
T3 sequence: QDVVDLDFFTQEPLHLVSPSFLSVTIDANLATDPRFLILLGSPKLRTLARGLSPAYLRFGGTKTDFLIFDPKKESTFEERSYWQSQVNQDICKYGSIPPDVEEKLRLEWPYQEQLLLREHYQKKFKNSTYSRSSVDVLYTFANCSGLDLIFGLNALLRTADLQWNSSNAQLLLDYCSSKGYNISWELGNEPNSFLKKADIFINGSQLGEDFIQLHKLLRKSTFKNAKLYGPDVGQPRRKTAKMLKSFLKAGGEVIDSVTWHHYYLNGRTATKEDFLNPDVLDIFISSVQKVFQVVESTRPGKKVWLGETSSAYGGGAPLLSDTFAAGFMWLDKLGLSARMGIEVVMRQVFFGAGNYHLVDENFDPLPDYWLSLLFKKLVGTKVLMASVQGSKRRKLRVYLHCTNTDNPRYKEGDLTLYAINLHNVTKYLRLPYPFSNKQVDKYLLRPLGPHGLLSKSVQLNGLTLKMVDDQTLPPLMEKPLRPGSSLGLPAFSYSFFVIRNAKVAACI

- inhibition of heparanase enzymatic activity by hybridoma A54 supernatant (release of sulfate-labeled HS degradation fragments from 35S-labeled ECM) [1]: 80%
- Kd (latent 65 kDa heparanase [2]): 3.18 nM
- IC50 (latent 65 kDa heparanase [3]): 0.2 nM
B1: A54 anti-heparanase monoclonal antibody (purified from hybridoma A54) (antibody, V domains shown)
VH: QVQLQQSGAELAKPGASVRMSCKASGYTFTNYWMHWVKQRPGQGLEWIGYINPTTGYTEYNQKFKDKATLTADKSSSTAYMQLSSLTSEDSAVYYCARGGAGYDYDEDYAMDYWGQGTSVTVSS
VL: DIVLTQSPASLAVSLGQRATISCRASESVEYFGTSYMNWYQQKPGQPPKLLIYLASILESGIPARFSGSGSGTDFTLNIHPVEEEDAATYYCQQSNEDPYTFGGGTKLEIK
notes: VH of A54; the Fab heavy chain is in the deposited structure PDB 9S8W; mouse IgG1 heavy chain constant region (subclass found with an isotyping kit); CH1 is also in PDB 9S8W; VL of A54; the Fab light chain is in the deposited structure PDB 9S8W; mouse kappa light chain constant region (IgG1-Kappa is stated for the recombinant version); also in PDB 9S8W; Mouse IgG1; whole IgG; Only the Fab part is …

- Kd [4]: 1 nM
B2: recombinant A54 mAb (antibody, V domains shown)
VH: B1 VH
VL: B1 VL
